From PMC5998909 come the findings set out here.

This test deals with Recombinant Art v 3.0201, non-specific lipid transfer protein of Artemisia vulgaris (mugwort) pollen (Artemisia vulgaris (mugwort)) (UniProt C4MGG9). Description: crystal structure + other: NMR spectroscopy; recombinant non-tagged Art v 3.0201; X-ray crystallography of the non-labelled protein, NMR of the 13C/15N-labelled protein.

On to “Recombinant Art v 3.0201, non-specific lipid transfer protein of Artemisia vulgaris (mugwort) pollen (from UniProt C4MGG9 1-114) (non-labelled protein)”, for which the stoichiometry N was 2.
